Assay results taken from article PMC10786891, “Massively parallel profiling of RNA-targeting CRISPR-Cas13d”.

T1: EsCas13d, nuclease-dead (Eubacterium siraeum, UniProt B0MS50, R295A;H300A;R849A;H854A)
T1 sequence: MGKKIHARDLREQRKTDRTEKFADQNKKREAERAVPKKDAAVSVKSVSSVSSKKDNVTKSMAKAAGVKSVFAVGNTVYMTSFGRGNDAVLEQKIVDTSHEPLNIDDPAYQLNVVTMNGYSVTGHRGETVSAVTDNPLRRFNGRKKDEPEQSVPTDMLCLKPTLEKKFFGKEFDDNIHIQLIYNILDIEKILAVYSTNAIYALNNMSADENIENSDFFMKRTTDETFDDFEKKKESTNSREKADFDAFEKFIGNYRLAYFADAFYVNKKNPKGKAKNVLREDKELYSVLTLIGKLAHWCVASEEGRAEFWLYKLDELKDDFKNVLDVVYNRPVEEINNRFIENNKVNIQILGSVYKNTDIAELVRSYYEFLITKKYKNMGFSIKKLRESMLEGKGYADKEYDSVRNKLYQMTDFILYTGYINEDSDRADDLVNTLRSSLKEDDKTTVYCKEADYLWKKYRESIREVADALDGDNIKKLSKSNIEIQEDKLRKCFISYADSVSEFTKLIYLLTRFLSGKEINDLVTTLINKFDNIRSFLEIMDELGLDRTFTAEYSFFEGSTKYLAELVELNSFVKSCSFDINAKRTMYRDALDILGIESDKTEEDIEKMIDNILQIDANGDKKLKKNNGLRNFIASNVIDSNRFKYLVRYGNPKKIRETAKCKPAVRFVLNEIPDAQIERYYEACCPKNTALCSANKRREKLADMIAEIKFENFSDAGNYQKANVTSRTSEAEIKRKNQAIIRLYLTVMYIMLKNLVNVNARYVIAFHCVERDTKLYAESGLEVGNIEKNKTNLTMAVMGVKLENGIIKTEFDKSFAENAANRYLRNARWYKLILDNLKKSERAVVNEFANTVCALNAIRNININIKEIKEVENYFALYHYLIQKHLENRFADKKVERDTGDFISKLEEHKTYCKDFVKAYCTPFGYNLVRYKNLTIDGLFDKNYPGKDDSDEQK


Each binder was assayed against T1, EsCas13d, nuclease-dead (assay: crRNA (strand 1, pre-loaded); Mg2+; 40 mM Tris-HCl pH 7.5, 150 mM NaCl, 6 mM MgCl2, 1 mM DTT, 0.1% Tween-20, 0.2 mg/ml BSA; 25 C; 10 min per concentration, then washed). Conditions: tags: His6-TwinStrep-SUMO cleaved; N-terminal SNAP kept (SNAP-Surface 488); label: 3' end held by stalled T7 RNA polymerase.

Binder	Kd [nM]
target 1 insG 3' of 4,insA 3' of 2 (mixed) RNA 1: CACCCGUGCAAAAAUGCAGGGGUCUAAAACUGAGCGGAUAACCUCUCUAUGG RNA 2: GGGAAUGGAUCCACAUCUACGAAUUCGUACCAUAGAGAGGUUAUCCGCGUCAACCGAGAUCGGAAGAGCACACGU	5.43 ± 0.18
target 1 insA 3' of 21,insU 3' of 6 (mixed) RNA 1: CACCCGUGCAAAAAUGCAGGGGUCUAAAACUGAGCGGAUAACCUCUCUAUGG RNA 2: GGGAAUGGAUCCACAUCUACGAAUUCGUACCAAUAGAGAGGUUAUCCUGCUCACCGAGAUCGGAAGAGCACACGU	20.3 ± 1.5
target 2 MT 5'PFS AAA 3'PFS CGC (mixed) RNA 1: CACCCGUGCAAAAUUGCAGGGGUCUAAAACCUUCUCCAAAUUGUUUCAUCCU RNA 2: GGGAAUGGAUCCACAUCUACGAAUUCAAAAGGAUGAAACAAUUUGGAGAAGCGCAGAUCGGAAGAGCACACGU	3.3 ± 1
target 2 MT 5'PFS UUU 3'PFS UAU (mixed) RNA 1: CACCCGUGCAAAAUUGCAGGGGUCUAAAACCUUCUCCAAAUUGUUUCAUCCU RNA 2: GGGAAUGGAUCCACAUCUACGAAUUCUUUAGGAUGAAACAAUUUGGAGAAGUAUAGAUCGGAAGAGCACACGU	8.4 ± 0.9
target 2 MT 5'PFS UUG 3'PFS AGC (mixed) RNA 1: CACCCGUGCAAAAUUGCAGGGGUCUAAAACCUUCUCCAAAUUGUUUCAUCCU RNA 2: GGGAAUGGAUCCACAUCUACGAAUUCUUGAGGAUGAAACAAUUUGGAGAAGAGCAGAUCGGAAGAGCACACGU	13.7 ± 2
target 2 MT 5'PFS UGC 3'PFS CUG (mixed) RNA 1: CACCCGUGCAAAAUUGCAGGGGUCUAAAACCUUCUCCAAAUUGUUUCAUCCU RNA 2: GGGAAUGGAUCCACAUCUACGAAUUCUGCAGGAUGAAACAAUUUGGAGAAGCUGAGAUCGGAAGAGCACACGU	34 ± 9
target 2 MT 5'PFS GUU 3'PFS UAA (mixed) RNA 1: CACCCGUGCAAAAUUGCAGGGGUCUAAAACCUUCUCCAAAUUGUUUCAUCCU RNA 2: GGGAAUGGAUCCACAUCUACGAAUUCGUUAGGAUGAAACAAUUUGGAGAAGUAAAGAUCGGAAGAGCACACGU	15.3 ± 3.3
target 2 MT 5'PFS AAA 3'PFS CGA (mixed) RNA 1: CACCCGUGCAAAAUUGCAGGGGUCUAAAACCUUCUCCAAAUUGUUUCAUCCU RNA 2: GGGAAUGGAUCCACAUCUACGAAUUCAAAAGGAUGAAACAAUUUGGAGAAGCGAAGAUCGGAAGAGCACACGU	3.4 ± 0.8
target 2 MT 5'PFS UGC 3'PFS CUU (mixed) RNA 1: CACCCGUGCAAAAUUGCAGGGGUCUAAAACCUUCUCCAAAUUGUUUCAUCCU RNA 2: GGGAAUGGAUCCACAUCUACGAAUUCUGCAGGAUGAAACAAUUUGGAGAAGCUUAGAUCGGAAGAGCACACGU	~110
target 2 MT 5'PFS GGC 3'PFS ACU (mixed) RNA 1: CACCCGUGCAAAAUUGCAGGGGUCUAAAACCUUCUCCAAAUUGUUUCAUCCU RNA 2: GGGAAUGGAUCCACAUCUACGAAUUCGGCAGGAUGAAACAAUUUGGAGAAGACUAGAUCGGAAGAGCACACGU	21.3 ± 2.5
target 2 MT 5'PFS CUC 3'PFS AGG (mixed) RNA 1: CACCCGUGCAAAAUUGCAGGGGUCUAAAACCUUCUCCAAAUUGUUUCAUCCU RNA 2: GGGAAUGGAUCCACAUCUACGAAUUCCUCAGGAUGAAACAAUUUGGAGAAGAGGAGAUCGGAAGAGCACACGU	2.8 ± 0.5
target 2 MT 5'PFS CUC 3'PFS AGU (mixed) RNA 1: CACCCGUGCAAAAUUGCAGGGGUCUAAAACCUUCUCCAAAUUGUUUCAUCCU RNA 2: GGGAAUGGAUCCACAUCUACGAAUUCCUCAGGAUGAAACAAUUUGGAGAAGAGUAGAUCGGAAGAGCACACGU	3.5 ± 0.8
target 2 MT 5'PFS GUA 3'PFS GCC (mixed) RNA 1: CACCCGUGCAAAAUUGCAGGGGUCUAAAACCUUCUCCAAAUUGUUUCAUCCU RNA 2: GGGAAUGGAUCCACAUCUACGAAUUCGUAAGGAUGAAACAAUUUGGAGAAGGCCAGAUCGGAAGAGCACACGU	6.4 ± 1.5
target 2 MT 5'PFS UGC 3'PFS CUA (mixed) RNA 1: CACCCGUGCAAAAUUGCAGGGGUCUAAAACCUUCUCCAAAUUGUUUCAUCCU RNA 2: GGGAAUGGAUCCACAUCUACGAAUUCUGCAGGAUGAAACAAUUUGGAGAAGCUAAGAUCGGAAGAGCACACGU	16 ± 6
target 2 MT 5'PFS CUC 3'PFS AGC (mixed) RNA 1: CACCCGUGCAAAAUUGCAGGGGUCUAAAACCUUCUCCAAAUUGUUUCAUCCU RNA 2: GGGAAUGGAUCCACAUCUACGAAUUCCUCAGGAUGAAACAAUUUGGAGAAGAGCAGAUCGGAAGAGCACACGU	1.98 ± 0.25
target 2 MT 5'PFS UGC 3'PFS CUC (mixed) RNA 1: CACCCGUGCAAAAUUGCAGGGGUCUAAAACCUUCUCCAAAUUGUUUCAUCCU RNA 2: GGGAAUGGAUCCACAUCUACGAAUUCUGCAGGAUGAAACAAUUUGGAGAAGCUCAGAUCGGAAGAGCACACGU	26 ± 6
target 2 MT 5'PFS UAU 3'PFS GGC (mixed) RNA 1: CACCCGUGCAAAAUUGCAGGGGUCUAAAACCUUCUCCAAAUUGUUUCAUCCU RNA 2: GGGAAUGGAUCCACAUCUACGAAUUCUAUAGGAUGAAACAAUUUGGAGAAGGGCAGAUCGGAAGAGCACACGU	44 ± 12
target 2 MT 5'PFS GUA 3'PFS GCG (mixed) RNA 1: CACCCGUGCAAAAUUGCAGGGGUCUAAAACCUUCUCCAAAUUGUUUCAUCCU RNA 2: GGGAAUGGAUCCACAUCUACGAAUUCGUAAGGAUGAAACAAUUUGGAGAAGGCGAGAUCGGAAGAGCACACGU	6.7 ± 0.6
target 2 MT 5'PFS GUU 3'PFS UAC (mixed) RNA 1: CACCCGUGCAAAAUUGCAGGGGUCUAAAACCUUCUCCAAAUUGUUUCAUCCU RNA 2: GGGAAUGGAUCCACAUCUACGAAUUCGUUAGGAUGAAACAAUUUGGAGAAGUACAGAUCGGAAGAGCACACGU	22 ± 4
target 2 MT 5'PFS AAU 3'PFS UGU (mixed) RNA 1: CACCCGUGCAAAAUUGCAGGGGUCUAAAACCUUCUCCAAAUUGUUUCAUCCU RNA 2: GGGAAUGGAUCCACAUCUACGAAUUCAAUAGGAUGAAACAAUUUGGAGAAGUGUAGAUCGGAAGAGCACACGU	9.1 ± 1.4
target 2 MT 5'PFS UUG 3'PFS AGU (mixed) RNA 1: CACCCGUGCAAAAUUGCAGGGGUCUAAAACCUUCUCCAAAUUGUUUCAUCCU RNA 2: GGGAAUGGAUCCACAUCUACGAAUUCUUGAGGAUGAAACAAUUUGGAGAAGAGUAGAUCGGAAGAGCACACGU	14.5 ± 2.2
target 2 MT 5'PFS CUC 3'PFS AGA (mixed) RNA 1: CACCCGUGCAAAAUUGCAGGGGUCUAAAACCUUCUCCAAAUUGUUUCAUCCU RNA 2: GGGAAUGGAUCCACAUCUACGAAUUCCUCAGGAUGAAACAAUUUGGAGAAGAGAAGAUCGGAAGAGCACACGU	1.68 ± 0.16
target 2 MT 5'PFS UUG 3'PFS AGG (mixed) RNA 1: CACCCGUGCAAAAUUGCAGGGGUCUAAAACCUUCUCCAAAUUGUUUCAUCCU RNA 2: GGGAAUGGAUCCACAUCUACGAAUUCUUGAGGAUGAAACAAUUUGGAGAAGAGGAGAUCGGAAGAGCACACGU	14.1 ± 1.5
target 2 MT 5'PFS GUU 3'PFS UAU (mixed) RNA 1: CACCCGUGCAAAAUUGCAGGGGUCUAAAACCUUCUCCAAAUUGUUUCAUCCU RNA 2: GGGAAUGGAUCCACAUCUACGAAUUCGUUAGGAUGAAACAAUUUGGAGAAGUAUAGAUCGGAAGAGCACACGU	16.2 ± 2.7
target 2 MT 5'PFS CGA 3'PFS CUC (mixed) RNA 1: CACCCGUGCAAAAUUGCAGGGGUCUAAAACCUUCUCCAAAUUGUUUCAUCCU RNA 2: GGGAAUGGAUCCACAUCUACGAAUUCCGAAGGAUGAAACAAUUUGGAGAAGCUCAGAUCGGAAGAGCACACGU	9.3 ± 1.8
target 2 MT 5'PFS UUG 3'PFS AGA (mixed) RNA 1: CACCCGUGCAAAAUUGCAGGGGUCUAAAACCUUCUCCAAAUUGUUUCAUCCU RNA 2: GGGAAUGGAUCCACAUCUACGAAUUCUUGAGGAUGAAACAAUUUGGAGAAGAGAAGAUCGGAAGAGCACACGU	7.9 ± 0.5
target 2 MT 5'PFS UCU 3'PFS ACU (mixed) RNA 1: CACCCGUGCAAAAUUGCAGGGGUCUAAAACCUUCUCCAAAUUGUUUCAUCCU RNA 2: GGGAAUGGAUCCACAUCUACGAAUUCUCUAGGAUGAAACAAUUUGGAGAAGACUAGAUCGGAAGAGCACACGU	9.4 ± 1.8
target 2 MT 5'PFS AUU 3'PFS UGU (mixed) RNA 1: CACCCGUGCAAAAUUGCAGGGGUCUAAAACCUUCUCCAAAUUGUUUCAUCCU RNA 2: GGGAAUGGAUCCACAUCUACGAAUUCAUUAGGAUGAAACAAUUUGGAGAAGUGUAGAUCGGAAGAGCACACGU	13.5 ± 1.7
